The record followed here is the Immune Epitope Database (IEDB).

Experiment [1] has as its target HLA-A*02:01. Nature of the experiment: IEDB peptide-MHC binding, purified MHC/competitive/radioactivity; filed as Kd, often an IC50 or EC50 that approximates it; ≥ and ≤ were set here for values at or beyond the usual limits of such assays.
Experiment [2] concerns the target HLA-A*02:17. The description is as above.
The target of experiment [3] is HLA-A*32:01. Described as above. As to conditions: source organism: Dengue virus 1 Brazil/97-11/1997.
Experiment [4] deals with HLA-A*29:02. Nature of the experiment: IEDB peptide-MHC binding, purified MHC/competitive/fluorescence; filed as Kd, often an IC50 or EC50 that approximates it; ≥ and ≤ were set here for values at or beyond the usual limits of such assays.
Experiment [5] concerns the target HLA-A*01:01. Nature of the experiment: IEDB peptide-MHC binding, purified MHC/direct/fluorescence; filed as Kd, often an IC50 or EC50 that approximates it; ≥ and ≤ were set here for values at or beyond the usual limits of such assays. As to conditions: source organism: Ebola virus - Gabon (1994-1997).
For experiment [6], the target named is HLA-A*02:01. Described as above. As to conditions: source organism: Ebola virus - Gabon (1994-1997).
Experiment [7] has as its target HLA-A*02:12. The description is as above. Particulars: source organism: Zaire ebolavirus.
Experiment [8] has as its target HLA-A*02:19. The experiment is described as above. Particulars: source organism: Zaire ebolavirus.
Experiment [9] addresses HLA-A*03:01. Described as above. Particulars: source organism: Ebola virus - Gabon (1994-1997).
Experiment [10] addresses HLA-A*11:01. The description is as above. As to conditions: source organism: Ebola virus - Gabon (1994-1997).
Experiment [11] concerns the target HLA-A*24:03. The experiment is described as above. As to conditions: source organism: Zaire ebolavirus.
Experiment [12] has as its target HLA-A*29:02. Described as above. As to conditions: source organism: Ebola virus - Gabon (1994-1997).
Experiment [13] deals with HLA-A*31:01. The experiment is described as above. As to conditions: source organism: Ebola virus - Gabon (1994-1997).
The target in experiment [14] is HLA-A*68:02. The description is as above. Particulars: source organism: Zaire ebolavirus.
For experiment [15], the target named is HLA-A*69:01. Described as above. Particulars: source organism: Ebola virus - Gabon (1994-1997).
Experiment [16] has as its target HLA-B*08:01. The experiment is described as above. Particulars: source organism: Ebola virus - Gabon (1994-1997).
Experiment [17] has as its target HLA-B*15:01. Described as above. As to conditions: source organism: Ebola virus - Gabon (1994-1997).
For experiment [18], the target named is HLA-B*18:01. Described as above. Particulars: source organism: Ebola virus - Gabon (1994-1997).
The target of experiment [19] is HLA-B*27:05. The description is as above. As to conditions: source organism: Ebola virus - Gabon (1994-1997).
The target of experiment [20] is HLA-B*40:01. Described as above. Particulars: source organism: Ebola virus - Gabon (1994-1997).
For experiment [21], the target named is HLA-B*44:02. Described as above. Particulars: source organism: Ebola virus - Gabon (1994-1997).
Experiment [22] concerns the target HLA-B*46:01. Described as above. As to conditions: source organism: Ebola virus - Gabon (1994-1997).
Experiment [23] deals with HLA-B*48:01. Described as above. As to conditions: source organism: Ebola virus - Gabon (1994-1997).
Experiment [24] has as its target HLA-B*57:01. The description is as above. Particulars: source organism: Ebola virus - Gabon (1994-1997).
For experiment [25], the target named is HLA-B*58:01. The experiment is described as above. As to conditions: source organism: Ebola virus - Gabon (1994-1997).
Experiment [26] concerns the target HLA-A*26:01. Description: IEDB peptide-MHC binding, purified MHC/competitive/fluorescence; filed as Kd, often an IC50 or EC50 that approximates it; ≥ and ≤ were set here for values at or beyond the usual limits of such assays. Particulars: source organism: Zaire ebolavirus.
For experiment [27], the target named is HLA-B*27:03. The experiment is described as above. As to conditions: source organism: Zaire ebolavirus.
For experiment [28], the target named is HLA-B*39:01. The experiment is described as above. As to conditions: source organism: Zaire ebolavirus.
Experiment [29] concerns the target HLA-B*51:01. The description is as above. As to conditions: source organism: Zaire ebolavirus.
For experiment [30], the target named is HLA-A*11:01. Description: IEDB peptide-MHC binding, purified MHC/competitive/fluorescence; ≥ and ≤ were set here for values at or beyond the usual limits of such assays.
The target of experiment [31] is HLA-A*02:03. Nature of the experiment: IEDB peptide-MHC binding, purified MHC/competitive/radioactivity; filed as Kd, often an IC50 or EC50 that approximates it; ≥ and ≤ were set here for values at or beyond the usual limits of such assays.
Experiment [32] concerns the target HLA-A*02:06. The experiment is described as above.
Experiment [33] concerns the target HLA-A*68:02. The experiment is described as above.
Experiment [34] deals with HLA-B*57:01. Described as above.
The target in experiment [35] is HLA-A*02:01. Nature of the experiment: IEDB peptide-MHC binding, purified MHC/competitive/fluorescence; ≥ and ≤ were set here for values at or beyond the usual limits of such assays. Particulars: source organism: Zaire ebolavirus.
Experiment [36] deals with HLA-B*15:17. Description: IEDB peptide-MHC binding, purified MHC/direct/fluorescence; filed as Kd, often an IC50 or EC50 that approximates it; ≥ and ≤ were set here for values at or beyond the usual limits of such assays. As to conditions: source organism: West Nile virus.
For experiment [37], the target named is HLA-B*53:01. Description: IEDB peptide-MHC binding, purified MHC/competitive/radioactivity; filed as Kd, often an IC50 or EC50 that approximates it; ≥ and ≤ were set here for values at or beyond the usual limits of such assays. Particulars: source organism: Dengue virus 1 Brazil/97-11/1997.
Where [38] appears, read: source organism: Dengue virus 1 Singapore/S275/1990.
The mark [39] stands for this setting: source organism: Dengue virus 3 China/80-2/1980.
Setting [40] is: source organism: Sudan ebolavirus.
The mark [41] stands for this setting: source organism: Dengue virus 3 Martinique/1243/1999.
Setting [42] is: source organism: Dengue virus 1 Brazil/97-11/1997.
The mark [43] stands for this setting: source organism: Zaire ebolavirus.
[44] abbreviates: source organism: Dengue virus 4 Philippines/H241/1956.
The mark [45] stands for this setting: source organism: Dengue virus 2 Jamaica/1409/1983.
Where [46] appears, read: source organism: Dengue virus 4 Dominica/814669/1981.
The mark [47] stands for this setting: source organism: Dengue virus 2 Thailand/NGS-C/1944.
Where [48] appears, read: source organism: Dengue virus 2 Peru/IQT2913/1996.

As a reminder, the Kd is the free concentration of one partner at which half of the binding sites on the other are occupied at equilibrium, for simple one-to-one binding. As to LMLVAHYAI, the Kd in experiment [1] (setting [38]) turned out to be 6.46 nM; in experiment [2] (setting [38]) it was 15.8 nM; in experiment [3], 5.57 nM.
On to LMSGKDVFYL, for which the Kd in experiment [1] (setting [39]) was 4.76 nM; in [2] (setting [39]) it was 8.67 nM.
On to YMGEDGCWYG, for which the Kd was 211 nM in experiment [1] (setting [39]) and 6040 nM in [2] (setting [39]).
In experiment [4] (source organism: Yersinia pseudotuberculosis IP 31758), KFGPYVSDY displayed a Kd of 110 nM.
LNRPDIGLY: the Kd in experiment [4] (source organism: Campylobacter jejuni) was determined as 306 nM.
As for QLSLKMLSL, the Kd in experiment [5], in experiment [6], in [7], in experiment [8], in experiment [9] and in experiment [10] was at least 20000 nM in each case. Besides, the Kd is at least 20000 nM in experiment [11]; at least 20000 nM in experiment [12]; at least 20000 nM in [13]; at least 20000 nM in experiment [14]; at least 20000 nM in [15]; 816 nM in experiment [16]. Further, the dissociation constant (Kd) in [17], in experiment [18], in experiment [19], in [20], in experiment [21] and in experiment [22] was at least 20000 nM each time. The Kd in experiment [23], in [24], in experiment [25], in experiment [26], in experiment [27] and in experiment [28] was at least 20000 nM each time. Also, in experiment [29], the Kd was at least 20000 nM.
Usually IC50 stands for the concentration that inhibits the measured activity by half. Lower therefore signals inhibition by little substance. With EDDDAASSR, the IC50 in [30] (setting [40]) is at least 70900 nM.
FLAIPPTAGV: the Kd was determined as 1.72 nM in experiment [31] (setting [41]), 120 nM in experiment [32] (setting [41]), 11.9 nM in experiment [2] (setting [39]) and 9.73 nM in [33] (setting [41]).
For GTSHNILVEV, the Kd in experiment [33] (setting [42]) is 15 nM; in experiment [34] (setting [42]) it was 758 nM.
In the case of GVNNLEHGL, the IC50 in [35] is 6440 nM; in experiment [30] (setting [43]) it was at least 132000 nM.
With NTSMAMTCIA, the dissociation constant (Kd) in experiment [34] (setting [44]) turned out to be 11700 nM.
Consider QAKKDFFSS, for which the concentration for half-maximal inhibition (IC50) in experiment [30] (setting [43]) was determined as 66800 nM.
In the case of LLMLLPTALA, the Kd in experiment [1] (setting [38]) turned out to be 128 nM; in experiment [31] (setting [42]) it was 49.9 nM; in experiment [2] (setting [38]) it was 5210 nM.
The matching figures for LLATSIFKL: 5 nM, 14.3 nM and 22.7 nM.
Consider VLNPYMPSV, for which the Kd was determined as 1.38 nM in [1] (setting [45]), 6.6 nM in [31] (setting [45]), 6.19 nM in experiment [32] (setting [45]) and 8.12 nM in experiment [2] (setting [45]).
VMLLVLCAV: the dissociation constant (Kd) was 14.7 nM in [1] (setting [39]), 775 nM in experiment [31] (setting [41]), 12.4 nM in experiment [32] (setting [41]) and at least 28700 nM in [2] (setting [39]).
In the case of YQGKTVWFV, the Kd came out at 9.87 nM in [1] (setting [44]), 12.3 nM in experiment [32] (setting [44]) and 201 nM in experiment [2] (setting [44]).
Sequence APKDLLPWY came in with an equilibrium dissociation constant (Kd) in experiment [4] (source organism: Bacillus anthracis str. A0488) of 2540 nM.
SMGLITIAV: the Kd in experiment [1] (setting [46]) turned out to be 9.99 nM; in experiment [2] (setting [46]) it was 776 nM.
In the case of GEWAFWENK, the IC50 in [30] (setting [40]) is 26200 nM.
As to YLALMATFKM, the Kd came to 12.8 nM in experiment [1] (setting [38]) and 182 nM in experiment [2] (setting [38]).
For YQLAVTIMA, the Kd was 42.3 nM in [1] (setting [45]), 19.8 nM in experiment [32] (setting [45]) and 10800 nM in experiment [2] (setting [45]).
As to VLDHILQKT, the half-maximal inhibitory concentration (IC50) in experiment [35] was 2620 nM; in experiment [30] (setting [43]) it was 55000 nM.
GIMTIDLDPV: the Kd in experiment [1] (setting [39]) was determined as 11.7 nM; in experiment [31] (setting [41]), 25.2 nM; in [32] (setting [41]), 83 nM; in experiment [2] (setting [39]) it was 2080 nM.
For RAWNSGYEW, the Kd in experiment [36] turned out to be 4.4 nM.
As for EAVEDERFW, the values for the Kd in experiment [37] and in [34] (setting [42]) were 80.8 nM and 84.5 nM, respectively.
On to MIIMLIPTV, for which the Kd in experiment [1] (setting [47]) amounted to 3.89 nM; in [31] (setting [48]) it was 4.4 nM; in experiment [32] (setting [48]) it was 7.5 nM; in experiment [2] (setting [47]), 0.634 nM.
As for AVSMANIFRG, the Kd in experiment [34] (setting [45]) was found to be 37.2 nM.
